Results reported in patent publication US20250034594A1, “RNA-GUIDED GENOME RECOMBINEERING AT KILOBASE SCALE” (THE BOARD OF TRUSTEES OF THE LELAND STANFORD JUNIOR …, priority 2021, published 2025).

Legend:
Format in all cases: cell-based
[1] = system: gene editing with Cas9 and dCas9; test: Screen of 322 new SSAP proteins, activity across all experiments (Cas9 and dCas9, Table 5); set-up: scale not given here
How it was run: (§1)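 Read-out is gene editing activity. Candidates come from sequence data mining, are made synthetically, and are tested alongside either nuclease-active Cas9 or catalytically dead dCas9.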

gene editing with dCas9 = test: Screen of 322 new SSAP proteins, gene editing activity with dCas9 (Table 5); set-up: dCas9 with SSAP activity: scale not given here
How it was run: as §1

gene editing with Cas9 = test: Screen of 322 new SSAP proteins, gene editing activity with Cas9 (Table 5); set-up: Cas9 with SSAP activity: scale not given here
How it was run: as §1

Row | Molecule | Activity across all experiments [1] | dCas9 with SSAP activity (gene editing with dCas9) | dCas9 with SSAP activity (normalized) (gene editing with dCas9) | Cas9 with SSAP activity (gene editing with Cas9) | Cas9 with SSAP activity (normalized) (gene editing with Cas9)
1 | SSAP_60: SEQ ID NO: 229 (protein) ASKNEAIEVSPAEIASVKEKPASIVKAEKAKKEPCALVKYEDAEGREVVLTREDIINTISSNPRITDKEIKLFIELARAQKLNPFTREIFITKYGDYPATFIVGKDVFTKRAQSNPLFKGMQAGIIVQRGNAVDQREGSATFGDEMLIGGWCKVYVQGYDVPIYDSVSFNEYAARKTDGTLNAMWASKPATMIRKVAIVHALREAFPSDFQGLYDQSEMGLSGQGGE | 0.534 | 0.311 | 0.109 | 0.757 | 0.560
2 | SSAP_182: SEQ ID NO: 351; Lacrimispora sphenoides (protein, Lacrimispora sphenoides) ADVKQELEKRAAGSGGQSVKLTKNMTIVDMVKALEPEIKRALPCILTPERFSRMALSAINNTPKLGECTPMSFIAALMNAAQLGLEPNTPLGQAYLIPYKNKGVLECQFQLGYRGLIDLAYRNERMQSIEAQVVYDNDEFSYELGLHPSLIHRPTFDEPGEIQAFYAIFRLDNGGFRFEVMSKNYVDSLCHALFKSIYFRFQSLEK | −3.606 | −5.663 | −0.742 | −1.549 | −1.689
3 | SSAP_115: SEQ ID NO: 284; Lacrimispora amygdalina (protein, listed as Lacrimispora amygdalina) AVDVKNELERKASGQNSQVKLTKSMTIADMVKALEPEIKRALPAVLTPERFTRMALSAINNTPELAGCTPMSFIAAMMNAAQLGLEPNTPLGQAYLIPYKNKGVLECQFQIGYKGMIDLAYRTGQIQVIQGQAVREFDYFEYQYGLDPKLVHRPGEEERGEITFIYGLFRLSNGGYGFEVSNKADMDAFAAKYSKSFGSKYSPWTENYEDMAKKTVIKRALKYAPVSVDFQKAMSMDETIKTEISVDMSEIRNECPEISENGEAA | −4.992 | −5.725 | −1.307 | −4.259 | −0.733
4 | SSAP_89: SEQ ID NO: 258; Pantoea brenneri (protein, listed as Pantoea brenneri) SNQPPIASADLQKTQQSKQVANKTPEQTLVGFMNQPAMKSQLAAALPRHMTADRMIRIVTTEIRKTPQLAQCDQSSFIGAVVQCSQLGLEPGSALGHAYLLPFGNGRSKSGQSNVQLIIGYRGMIDLARRSGQIVSLSARVVRADDEFSFEYGLDENLVHRPGENEDAPITHVYAVARLKDGGTQFEVMTVKQVEKVKAQSKASSNGPWVTHWEEMAKKTVIRRLFKYLPVSIEMQKAVVLDEKAESDVDQDNASVLSAEYSVLESGDEATN | 0.393 | 0.225 | 0.240 | 0.562 | 0.533
5 | SSAP_217: SEQ ID NO: 386; Streptomyces noursei (protein, listed as Streptomyces noursei) TSPIRAAVARRAGDPAALISQYTADFAAVLPSHIKPATFVRLAQGILRRDEKLAQAAANDPGQFMSVLLDAARLGLEPGTEAYYLVPFKGRVQGIVGWQGEIELMYRAGAISSVIVETVREDDVFVWTPGLVDRETPPRWEGPMSYPFHEVEWAGDRGPLRLVYAYAVMKGGATSKVVVLNAQDIERAKKTSQGADSPSSPWRQHEAAMWSKTAVHRLAKYVPTSAEYITAQVRAVRQADALSAPPVEEVVDVELVGDGQEQEARR | −3.758 | −5.577 | −0.839 | −1.938 | −1.023
6 | SSAP_264: SEQ ID NO: 433; Cereibacter johrii (protein, listed as Cereibacter johrii) TENTAQAPAAARQLTPIQAISQTLESDAFAPKISASLDGTGISPARFKRAALACLSRPEASYLVEKCDRGSIFTAVMNAAAAELELHPALGQAYIVPRGGQAVLQVGYKGFIALASRAGLAVEADVIYAGDRFSIRKGTNPDVSVEPELDPAKRGEWVAVYVITHYASGAKTLTFMTRAEVEAIRNRYSDAYKRGGAGAKTWNESPEEMAKKTCIRRASKLWPISVPGGGDDDGGEVIEADPAPVPAPRMRDVTPGGGLDRLAASL | −2.625 | −5.815 | −0.919 | 0.565 | 0.375
7 | SSAP_9: SEQ ID NO: 178; Bet Gammaproteobacteria (protein, Gammaproteobacteria, Bet Gammaproteobacteria) EKPKLIQRFAERFSVDPNKLFDTLKATAFKQRDGSAPTNEQMMALLVVADQYGLNPFTKEIFAFPDKQAGIIPVVGVDGWSRIINQHDQFDGMEFKTSENKVSLDGAKECPEWMECIIYRRDRSHPVKITEYLDEVYRPPFEGNGKNGPYRVDGPWQTHTKRMLRHKSMIQCSRIAFGFVGIFDQDEAERIIEGQATHVVEPSVIPPEQVDDRTRGLVYKLIERAEASNAWNSALEYANEHFQGVELTFAKQEIFNAQQQAAKALTQPLAS | −3.138 | −5.773 | −1.126 | −0.503 | −1.380
8 | SSAP_13: SEQ ID NO: 182 (protein) ANELGIFSVDNLNMTTIKQYLDGGGKASDAELVLLINLCKQNNMNPFMKEVYFIKYGNQPAQIVVSRDFYRKRAFQNPNFVGIEVGVIVLNKDGVLEHNEGTFKTHEQELVGAWARVHLKNTEIPVYVAVSYDEYVQMKDGHPNKMWTNKPCTMLGKVAESQALRMAFPAEFSGTYGEEEFPEPEKEPREVNGVKEPDRAQIESFDKEDYAAKKIEELKEKAQPQKEVVEETGEVIDEEPLEGF | −3.004 | −5.545 | −0.758 | −0.463 | −0.403
9 | SSAP_174: SEQ ID NO: 343; Hespellia stercorisuis (protein, listed as Hespellia stercorisuis) ADIKEELAKKVAEGTEDKKKLTKSMSIADLIKAMEPEIKKALPEVITPERFTRMALSALNTTPKLKECTQTSFLTALMNAAQLGLEPNTPLGQAYLIPYKNKGNLECQFQIGYKGLIDLSYRNRQMQIIQAQAVYENDEFEYELGLNPVLVHRPALQNRGAVKLFYGIFKLTNGGFGFEVMSKADMDAYAKEYSKAFDSSFSPWKSNYIGMAKKTVIKQAIKYAPLKTDFRKALSTDETIKTEFCEDMSEVQCKDIWDTEYKERSA | −4.727 | −5.563 | −1.144 | −3.891 | −0.617
10 | SSAP_157: SEQ ID NO: 326; Pseudoflavonifractor sp. An184 (protein, listed as Pseudoflavonifractor sp.) ATEKAIQRATGRAPALENRPALQQYIKQMSGEIKKALPSVMTPERFTRIVLSALSTNPKLAETTPQSFLGAMMTAAQLGLEPNTPLGQAYLLPYWNSKANAYECQFQLGYKGLLDLAYRSGEISVIQAHVVYSEDQFSYSFGLKPELKHIPAGEERGEPVYVYAIFHTKDGGYGFEVCSIDDIRAHAQRYSKSFQNGPWQTNFEEMAKKTVLKRVLKYAPLKSEFLRGLAQDETIKQEISEDMYMVEAAYAEPDVSSAEND | −4.633 | −5.734 | −0.898 | −3.533 | −1.181
11 | SSAP_304: SEQ ID NO: 473; Desulfobacteraceae bacterium (protein, listed as Desulfobacteraceae bacterium) ATPNTPTTTDAGDFLKKSEKSLKNYAVRKYDFTSFLKSAMIAINDNTTLSECLRTEAGKKSLFNAMRYAATTGLSLNPQEGKAALIGYKNKAGEMVLNYQIMKNGLIDLALSSGKVEFVTADLVRANDEFSIKKSASGDDYSFSPAIRDRGEVIGFVAALKLKGSATYVKWMSTEEVAEFRDKYSSMYKNRPDASPWTHSFNGMGIKTVMKALLRSVSISPDVDAAVKSDDYIEAEFTVHGTTADDAVTQLQTPSKPVKAEEGQGELL | −4.262 | −5.835 | −0.886 | −2.690 | −0.447
12 | SSAP_189: SEQ ID NO: 358; Asaia sp. W19 (protein, listed as Asaia sp.) SNALATPTEKLRTQITSMTGEFRNALPSHIKPEKFQRVVMTVVQQNQGLMNADRKSLLASCLKCAADGLIPDGREAALVMFGQQVQYMPMLAGIQKRIRNSGEIASIQAHVIYENDHFIWHQGIDASIEHRPLFPGDRGKAIGAYAVAKFKDGSDPQFEVMDVAAIEKVRAVSRAGKSGPWVQWWDEMARKTVFRRLSKWLPMDTEAEDLMRRDDENDAQDVAAPTIRVEAEAPSKLDALEHDDDGVVLEETRELEGSAA | −3.046 | −5.652 | −0.952 | −0.440 | −2.025
13 | SSAP_156: SEQ ID NO: 325; Bacillus sp. AFS017336 (protein, listed as Bacillus sp.) ATNESLKNQITNKKTGEVPLTPAQQVSSYLKAYEGTFQQIAPKHFNTERFQRIALSEIRKNPKLLECSVPSLMSAVLQSVKLGLEPGLFGQAYLIPYGKEVQFQIGYRGLIELSQRSGRILKIQAREVYENDEFEVSYGIDDNIIHKPALDVDRGKVRLYYAVAWFKDGGAQFELMSISDVEKHRDKFSKTAKFGPWKDHFDEMAKKTVLKKLVKQLPMDVEFQEAVQEDETVRKTITDEPEILQAEFEIVDQPEISVE | −2.272 | −5.389 | −0.877 | 0.844 | 2.230
